# From IntAct's records for PubMed 22334672
# B1: mRNA export factor (Human herpesvirus 1 (strain 17) (HHV-1)), P10238 (parent)
# chain: MATDIDMLIDLGLDLSDSDLDEDPPEPAESRRDDLESDSSGECSSSDEDMEDPHGEDGPEPILDAARPAVRPSRPEDPGVPSTQTPRPTERQGPNDPQPAPHSVWSRLGARRPSCSPEQHGGKVARLQPPPTKAQPARGGRRGRRRGRGRGGPGAADGLSDPRRRAPRTNRNPGGPRPGAGWTDGPGAPHGEAWRGSEQPDPPGGQRTRGVRQAPPPLMTLAIAPPPADPRAPAPERKAPAADTIDATTRLVLRSISERAAVDRISESFGRSAQVMHDPFGGQPFPAANSPWAPVLAGQGGPFDAETRRVSWETLVAHGPSLYRTFAGNPRAASTAKAMRDCVLRQENFIEALASADETLAWCKMCIHHNLPLRPQDPIIGTTAAVLDNLATRLRPFLQCYLKARGLCGLDELCSRRRLADIKDIASFVFVILARLANRVERGVAEIDYATLGVGVGEKMHFYLPGACMAGLIEILDTHRQECSSRVCELTASHIVAPPYVHGKYFYCNSLF
# partner: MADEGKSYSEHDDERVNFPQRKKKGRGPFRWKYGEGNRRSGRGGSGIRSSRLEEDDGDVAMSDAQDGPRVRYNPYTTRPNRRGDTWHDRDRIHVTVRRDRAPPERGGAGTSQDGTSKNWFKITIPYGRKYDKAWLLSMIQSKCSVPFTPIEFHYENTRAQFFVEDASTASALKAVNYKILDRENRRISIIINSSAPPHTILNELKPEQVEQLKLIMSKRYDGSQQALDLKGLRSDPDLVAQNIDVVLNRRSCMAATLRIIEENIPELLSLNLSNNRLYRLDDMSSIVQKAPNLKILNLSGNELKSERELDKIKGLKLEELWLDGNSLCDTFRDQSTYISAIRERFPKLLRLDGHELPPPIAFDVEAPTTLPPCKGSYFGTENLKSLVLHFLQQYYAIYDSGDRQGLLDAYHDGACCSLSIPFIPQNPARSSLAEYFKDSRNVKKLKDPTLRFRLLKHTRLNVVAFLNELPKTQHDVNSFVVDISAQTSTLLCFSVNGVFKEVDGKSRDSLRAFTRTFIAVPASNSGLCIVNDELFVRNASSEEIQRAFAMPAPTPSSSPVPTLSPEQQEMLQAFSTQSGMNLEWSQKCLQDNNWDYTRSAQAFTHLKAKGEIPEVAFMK
# Variants of: B1
# Details: with nxf1_human NXF1, Q9UBU9
row,Variant,effect of a mutation on the interaction
1,P465L;G466E,disrupting interaction
